Target: the molecule itself
Test: SEC-MALS

B1: miniTRIM37 RBhcc B-box-2 mutant (other)
chain: MDEQSVESIAEVFRCFICMEKLRDARLCPHCSKLCCFSCIRRWLTEQRAQCPHCRAPLQLRELVNCRWAEEVTQQLDTLQLCSLTKHEENEKDKCENHHEKLSVFCWTCKKCICAQCADWGGMHGGHTFKPLAEIYEQHVTKVNEEVAKLRRRLMELITERNQVAKRVPKAPPEEKEALIARGKALGEETELLESLLQEVEHQLRSCSKSELISKSSEILMMFQQVHRK
stoichiometry N: 2

Reference: paper PMC11482875 (bioRxiv, 2024)
